# According to the Human Domainome abundance scans (Beltran et al. 2025):
# ± gives the uncertainty stated by the source.
# B1: POU domain, class 3, transcription factor 2, residues 356 to 411; numbered along this chain, P20265 (parent)
# chain: KKRTSIEVSVKGALESHFLKCPKPSAQEITSLADSLQLEKEVVRVWFCNRRQKEKR
# Variants of: B1
# Test: abundance fitness (aPCA) (normalised: wild type 0, dead -1); higher = more abundant; growth selection in yeast, the domain comes from the species named
# Conditions: Homo sapiens
row,Variant,abundance fitness
1,KKRTSTEVSVKGALESHFLKCPKPSAQEITSLADSLQLEKEVVRVWFCNRRQKEKR,-0.111 ± 0.16
2,KKRTSPEVSVKGALESHFLKCPKPSAQEITSLADSLQLEKEVVRVWFCNRRQKEKR,-0.213 ± 0.16
3,KKRTSKEVSVKGALESHFLKCPKPSAQEITSLADSLQLEKEVVRVWFCNRRQKEKR,0.103 ± 0.15
4,KKRTSMEVSVKGALESHFLKCPKPSAQEITSLADSLQLEKEVVRVWFCNRRQKEKR,-0.049 ± 0.17
5,KKRTSQEVSVKGALESHFLKCPKPSAQEITSLADSLQLEKEVVRVWFCNRRQKEKR,-0.226 ± 0.19
6,KKRTSHEVSVKGALESHFLKCPKPSAQEITSLADSLQLEKEVVRVWFCNRRQKEKR,-0.247 ± 0.17
7,KKRTSEEVSVKGALESHFLKCPKPSAQEITSLADSLQLEKEVVRVWFCNRRQKEKR,-0.091 ± 0.15
8,KKRTSFEVSVKGALESHFLKCPKPSAQEITSLADSLQLEKEVVRVWFCNRRQKEKR,-0.438 ± 0.17
9,KKRTSREVSVKGALESHFLKCPKPSAQEITSLADSLQLEKEVVRVWFCNRRQKEKR,-0.117 ± 0.084
10,KKRTSDEVSVKGALESHFLKCPKPSAQEITSLADSLQLEKEVVRVWFCNRRQKEKR,-0.072 ± 0.13
11,KKRTSLEVSVKGALESHFLKCPKPSAQEITSLADSLQLEKEVVRVWFCNRRQKEKR,0.045 ± 0.089
12,KKRTSWEVSVKGALESHFLKCPKPSAQEITSLADSLQLEKEVVRVWFCNRRQKEKR,-0.289 ± 0.11
13,KKRTSAEVSVKGALESHFLKCPKPSAQEITSLADSLQLEKEVVRVWFCNRRQKEKR,-0.069 ± 0.14
14,KKRTSSEVSVKGALESHFLKCPKPSAQEITSLADSLQLEKEVVRVWFCNRRQKEKR,-0.053 ± 0.12
15,KKRTSGEVSVKGALESHFLKCPKPSAQEITSLADSLQLEKEVVRVWFCNRRQKEKR,-0.119 ± 0.071
16,KKRTSCEVSVKGALESHFLKCPKPSAQEITSLADSLQLEKEVVRVWFCNRRQKEKR,-0.172 ± 0.11
17,KKRTSYEVSVKGALESHFLKCPKPSAQEITSLADSLQLEKEVVRVWFCNRRQKEKR,-0.239 ± 0.16
18,KKRTAIEVSVKGALESHFLKCPKPSAQEITSLADSLQLEKEVVRVWFCNRRQKEKR,-0.001 ± 0.12
19,KKRTCIEVSVKGALESHFLKCPKPSAQEITSLADSLQLEKEVVRVWFCNRRQKEKR,0.033 ± 0.096
20,KKRTFIEVSVKGALESHFLKCPKPSAQEITSLADSLQLEKEVVRVWFCNRRQKEKR,-0.053 ± 0.18
21,KKRTIIEVSVKGALESHFLKCPKPSAQEITSLADSLQLEKEVVRVWFCNRRQKEKR,0.118 ± 0.16
22,KKRTYIEVSVKGALESHFLKCPKPSAQEITSLADSLQLEKEVVRVWFCNRRQKEKR,-0.183 ± 0.17
23,KKRTQIEVSVKGALESHFLKCPKPSAQEITSLADSLQLEKEVVRVWFCNRRQKEKR,0.095 ± 0.14
24,KKRTPIEVSVKGALESHFLKCPKPSAQEITSLADSLQLEKEVVRVWFCNRRQKEKR,0.007 ± 0.11

row,Variant,abundance fitness
1,KKRTKIEVSVKGALESHFLKCPKPSAQEITSLADSLQLEKEVVRVWFCNRRQKEKR,0.14 ± 0.12
2,KKRTTIEVSVKGALESHFLKCPKPSAQEITSLADSLQLEKEVVRVWFCNRRQKEKR,0.173 ± 0.1
3,KKRTRIEVSVKGALESHFLKCPKPSAQEITSLADSLQLEKEVVRVWFCNRRQKEKR,-0.105 ± 0.068
4,KKRTWIEVSVKGALESHFLKCPKPSAQEITSLADSLQLEKEVVRVWFCNRRQKEKR,-0.313 ± 0.11
5,KKRTGIEVSVKGALESHFLKCPKPSAQEITSLADSLQLEKEVVRVWFCNRRQKEKR,0.024 ± 0.072
6,KKRTLIEVSVKGALESHFLKCPKPSAQEITSLADSLQLEKEVVRVWFCNRRQKEKR,0.002 ± 0.085
7,KKRTDIEVSVKGALESHFLKCPKPSAQEITSLADSLQLEKEVVRVWFCNRRQKEKR,-0.174 ± 0.15
8,KKRTHIEVSVKGALESHFLKCPKPSAQEITSLADSLQLEKEVVRVWFCNRRQKEKR,0.095 ± 0.17
9,KKRTMIEVSVKGALESHFLKCPKPSAQEITSLADSLQLEKEVVRVWFCNRRQKEKR,-0.018 ± 0.12
10,KKRTVIEVSVKGALESHFLKCPKPSAQEITSLADSLQLEKEVVRVWFCNRRQKEKR,0.229 ± 0.096
11,KKMTSIEVSVKGALESHFLKCPKPSAQEITSLADSLQLEKEVVRVWFCNRRQKEKR,0.031 ± 0.11
12,KKGTSIEVSVKGALESHFLKCPKPSAQEITSLADSLQLEKEVVRVWFCNRRQKEKR,0.092 ± 0.08
13,KKCTSIEVSVKGALESHFLKCPKPSAQEITSLADSLQLEKEVVRVWFCNRRQKEKR,0.246 ± 0.12
14,KKITSIEVSVKGALESHFLKCPKPSAQEITSLADSLQLEKEVVRVWFCNRRQKEKR,0.045 ± 0.15
15,KKTTSIEVSVKGALESHFLKCPKPSAQEITSLADSLQLEKEVVRVWFCNRRQKEKR,-0.009 ± 0.11
16,KKATSIEVSVKGALESHFLKCPKPSAQEITSLADSLQLEKEVVRVWFCNRRQKEKR,-0.168 ± 0.082
17,KKSTSIEVSVKGALESHFLKCPKPSAQEITSLADSLQLEKEVVRVWFCNRRQKEKR,0.023 ± 0.1
18,KKKTSIEVSVKGALESHFLKCPKPSAQEITSLADSLQLEKEVVRVWFCNRRQKEKR,0.054 ± 0.21
19,KKVTSIEVSVKGALESHFLKCPKPSAQEITSLADSLQLEKEVVRVWFCNRRQKEKR,0.051 ± 0.091
20,KKPTSIEVSVKGALESHFLKCPKPSAQEITSLADSLQLEKEVVRVWFCNRRQKEKR,-0.134 ± 0.15
21,KKFTSIEVSVKGALESHFLKCPKPSAQEITSLADSLQLEKEVVRVWFCNRRQKEKR,-0.021 ± 0.13
22,KKLTSIEVSVKGALESHFLKCPKPSAQEITSLADSLQLEKEVVRVWFCNRRQKEKR,0.01 ± 0.087
23,KKHTSIEVSVKGALESHFLKCPKPSAQEITSLADSLQLEKEVVRVWFCNRRQKEKR,0.002 ± 0.11
24,KKWTSIEVSVKGALESHFLKCPKPSAQEITSLADSLQLEKEVVRVWFCNRRQKEKR,-0.273 ± 0.15

row,Variant,abundance fitness
1,KKYTSIEVSVKGALESHFLKCPKPSAQEITSLADSLQLEKEVVRVWFCNRRQKEKR,0.026 ± 0.18
2,KKNTSIEVSVKGALESHFLKCPKPSAQEITSLADSLQLEKEVVRVWFCNRRQKEKR,0.13 ± 0.16
3,KKRTSIHVSVKGALESHFLKCPKPSAQEITSLADSLQLEKEVVRVWFCNRRQKEKR,0.028 ± 0.069
4,KKRTSIGVSVKGALESHFLKCPKPSAQEITSLADSLQLEKEVVRVWFCNRRQKEKR,0.077 ± 0.081
5,KKRTSIDVSVKGALESHFLKCPKPSAQEITSLADSLQLEKEVVRVWFCNRRQKEKR,0.066 ± 0.077
6,KKRTSICVSVKGALESHFLKCPKPSAQEITSLADSLQLEKEVVRVWFCNRRQKEKR,0.014 ± 0.073
7,KKRTSILVSVKGALESHFLKCPKPSAQEITSLADSLQLEKEVVRVWFCNRRQKEKR,-0.177 ± 0.057
8,KKRTSIIVSVKGALESHFLKCPKPSAQEITSLADSLQLEKEVVRVWFCNRRQKEKR,-0.116 ± 0.081
9,KKRTSIMVSVKGALESHFLKCPKPSAQEITSLADSLQLEKEVVRVWFCNRRQKEKR,0.032 ± 0.096
10,KKRTSIKVSVKGALESHFLKCPKPSAQEITSLADSLQLEKEVVRVWFCNRRQKEKR,-0.112 ± 0.092
11,KKRTSIAVSVKGALESHFLKCPKPSAQEITSLADSLQLEKEVVRVWFCNRRQKEKR,-0.039 ± 0.071
12,KKRQSIEVSVKGALESHFLKCPKPSAQEITSLADSLQLEKEVVRVWFCNRRQKEKR,-0.107 ± 0.14
13,KKRESIEVSVKGALESHFLKCPKPSAQEITSLADSLQLEKEVVRVWFCNRRQKEKR,0.17 ± 0.18
14,KKRDSIEVSVKGALESHFLKCPKPSAQEITSLADSLQLEKEVVRVWFCNRRQKEKR,0.023 ± 0.16
15,KKRGSIEVSVKGALESHFLKCPKPSAQEITSLADSLQLEKEVVRVWFCNRRQKEKR,-0.198 ± 0.088
16,KKRWSIEVSVKGALESHFLKCPKPSAQEITSLADSLQLEKEVVRVWFCNRRQKEKR,-0.546 ± 0.12
17,KKRRSIEVSVKGALESHFLKCPKPSAQEITSLADSLQLEKEVVRVWFCNRRQKEKR,-0.356 ± 0.074
18,KKRFSIEVSVKGALESHFLKCPKPSAQEITSLADSLQLEKEVVRVWFCNRRQKEKR,0.126 ± 0.23
19,KKRKSIEVSVKGALESHFLKCPKPSAQEITSLADSLQLEKEVVRVWFCNRRQKEKR,-0.267 ± 0.14
20,KKRLSIEVSVKGALESHFLKCPKPSAQEITSLADSLQLEKEVVRVWFCNRRQKEKR,-0.199 ± 0.085
21,KKRYSIEVSVKGALESHFLKCPKPSAQEITSLADSLQLEKEVVRVWFCNRRQKEKR,-0.209 ± 0.14
22,KKRCSIEVSVKGALESHFLKCPKPSAQEITSLADSLQLEKEVVRVWFCNRRQKEKR,-0.287 ± 0.15
23,KKRHSIEVSVKGALESHFLKCPKPSAQEITSLADSLQLEKEVVRVWFCNRRQKEKR,-0.363 ± 0.13
24,KKRNSIEVSVKGALESHFLKCPKPSAQEITSLADSLQLEKEVVRVWFCNRRQKEKR,-0.032 ± 0.16

row,Variant,abundance fitness
1,KKRMSIEVSVKGALESHFLKCPKPSAQEITSLADSLQLEKEVVRVWFCNRRQKEKR,-0.015 ± 0.1
2,KKRVSIEVSVKGALESHFLKCPKPSAQEITSLADSLQLEKEVVRVWFCNRRQKEKR,-0.095 ± 0.087
3,KKRPSIEVSVKGALESHFLKCPKPSAQEITSLADSLQLEKEVVRVWFCNRRQKEKR,-0.101 ± 0.12
4,KKRISIEVSVKGALESHFLKCPKPSAQEITSLADSLQLEKEVVRVWFCNRRQKEKR,0.053 ± 0.15
5,KKRSSIEVSVKGALESHFLKCPKPSAQEITSLADSLQLEKEVVRVWFCNRRQKEKR,-0.029 ± 0.081
6,KRRTSIEVSVKGALESHFLKCPKPSAQEITSLADSLQLEKEVVRVWFCNRRQKEKR,-0.166 ± 0.099
7,KERTSIEVSVKGALESHFLKCPKPSAQEITSLADSLQLEKEVVRVWFCNRRQKEKR,-0.07 ± 0.18
8,KDRTSIEVSVKGALESHFLKCPKPSAQEITSLADSLQLEKEVVRVWFCNRRQKEKR,0.028 ± 0.18
9,KIRTSIEVSVKGALESHFLKCPKPSAQEITSLADSLQLEKEVVRVWFCNRRQKEKR,-0.207 ± 0.21
10,KSRTSIEVSVKGALESHFLKCPKPSAQEITSLADSLQLEKEVVRVWFCNRRQKEKR,-0.18 ± 0.12
11,KMRTSIEVSVKGALESHFLKCPKPSAQEITSLADSLQLEKEVVRVWFCNRRQKEKR,-0.072 ± 0.13
12,KLRTSIEVSVKGALESHFLKCPKPSAQEITSLADSLQLEKEVVRVWFCNRRQKEKR,-0.222 ± 0.12
13,KQRTSIEVSVKGALESHFLKCPKPSAQEITSLADSLQLEKEVVRVWFCNRRQKEKR,-0.068 ± 0.17
14,KYRTSIEVSVKGALESHFLKCPKPSAQEITSLADSLQLEKEVVRVWFCNRRQKEKR,-0.06 ± 0.28
15,KGRTSIEVSVKGALESHFLKCPKPSAQEITSLADSLQLEKEVVRVWFCNRRQKEKR,-0.087 ± 0.1
16,KFRTSIEVSVKGALESHFLKCPKPSAQEITSLADSLQLEKEVVRVWFCNRRQKEKR,-0.199 ± 0.2
17,KNRTSIEVSVKGALESHFLKCPKPSAQEITSLADSLQLEKEVVRVWFCNRRQKEKR,-0.339 ± 0.2
18,KPRTSIEVSVKGALESHFLKCPKPSAQEITSLADSLQLEKEVVRVWFCNRRQKEKR,-0.525 ± 0.24
19,KHRTSIEVSVKGALESHFLKCPKPSAQEITSLADSLQLEKEVVRVWFCNRRQKEKR,-0.335 ± 0.47
20,KTRTSIEVSVKGALESHFLKCPKPSAQEITSLADSLQLEKEVVRVWFCNRRQKEKR,-0.21 ± 0.14
21,KVRTSIEVSVKGALESHFLKCPKPSAQEITSLADSLQLEKEVVRVWFCNRRQKEKR,-0.119 ± 0.12
22,KWRTSIEVSVKGALESHFLKCPKPSAQEITSLADSLQLEKEVVRVWFCNRRQKEKR,-0.246 ± 0.13
